Source: patent US20240091321A1
Positions count from the first letter of the chain named.

B1: PPT1-105 (enzyme, part only; not given: linker identity, part only)
fusion protein, part: SRALQHLDPPAPLPLVIWHGMGDSCCNPLSMGAIKKMVEKKIPGIYVLSLEIGKTLMEDVENSFFLNVNSQVTTVCQALAKDPKLQQGYNAMGFSQGGQFLRAVAQRCPSPPMINLISVGGQHQGVFGLPRCPGESSHICDFIRKTLNAGAYSKVVQERLVQAEYWHDPIKEDVYRNHSIFLADINQERGINESYKKNLMALKKFVMVKFLNDSIVDPVDSEWFGFYRSGQAKETIPLQETSLYTQDRLGLKEMDNAGQLVFLATEGDHLQLSEEWFYAHIIPFLGRPRAVPTQSRTLCGGELVDTLQFVCGDRGFLFSRGGGGSRGILEECCFRDCDLALLETYCATPARSE
B2: PPT1-106 (enzyme, part only; not given: linker identity, part only)
fusion protein, part: B1 fusion protein, part with D336E

How the values were obtained:
CI-MPR receptor [1] = experiment: CIMPR binding assay, PPT1 conditioned media, curves starting at 25 nM, bound PPT1 activity; the table prints no units, units of the axes
CI-MPR receptor [2] = experiment: CIMPR binding assay, PPT1 conditioned media, dilution starting at 50 nM, bound PPT1 activity; the table prints no units, units of the axes

Row | Binder | Bmax (CI-MPR receptor [1]) [nmol/mL/h] | Kd (CI-MPR receptor [1]) [nM] | Bmax (CI-MPR receptor [2]) [nmol/mL/h] | Kd (CI-MPR receptor [2]) [nM]
1 | B1 | 73.5 | 4.45 | 73.5 | 4.45
2 | B2 | 91.4 | 5.46 | 91.4 | 5.46
